According to patent US20250195629A1, “SITE-SPECIFIC BRAIN THERAPEUTICS” (William Marsh Rice University, priority 2023, published 2025):

Assays:
[1] = Mouse body weight analysis; assay type: in vivo; settings: day 0 vs 2 days after injection, RLuc8.6 100 mg/kg, AADC-IKVAV 250 mg/kg
Description: To assess the potential impact of the RAID approach on the body weight of the mice involved in behavior analysis (n=11 mice for the FUS alone+L-DOPA group and n=14 mice for the FUS+AADC-IKVAV (SEQ ID NO: 23)+L-DOPA group), their body weight was recorded on a daily basis before and after FUS-BBBO administration. […] The body weight of the additional group of mice was also recorded in a similar manner; however, unintentionally four mice were omitted from weighing on the day following the AADC-IKVAV (SEQ ID NO: 23) injection. Similarly, the mouse body weight was recorded before and after the intravenous injection of unmodified or engineered RLuc8.6, which is related to the study presented in FIG. 5.

[2] = AADC immunostaining, AADC-IKVAV retention and spatial targeting after FUS-BBBO; assay type: in vivo, mouse; settings: for local AADC levels (AADC+ pixels) in FUS-targeted region vs FUS alone control group: 250 mg/kg i.v., one FUS site left CPu, 2 days
Description: c-Fos […] injection of recombinant protein AADC-IKVAV (SEQ ID NO: 23) (20 mg/mL, 250 mg/kg) or equivalent volume of PBS buffer (n=5 mice for FUS alone+L-DOPA group). After 48 h, the mice were given a single dose of L-DOPA (0.1 mg/mL, 2 mg/kg, i.p.; Spectrum Chemical) 10 min after injection of carbidopa (1 mg/mL, 25 mg/kg, i.p.; Sigma-Aldrich), both of which were dissolved in sterile saline containing 2.5 and 0.125 mg/mL ascorbic acid. […] After 2 hours, the mice were euthanized by transcardial perfusion, and their brains were extracted and sliced into 50 μm coronal sections following 24-48 hours of fixation.
Immunostaining of AADC was performed as follows: (1) incubate the brain sections in 1× antigen retrieval solution (catalog number: 00-4955-58; Invitrogen) overnight in a 60° C. water bath; (2) block sections in 5% normal goat serum (SouthernBiotech) and 0.3% Triton-X solution in PBS for 1 h at room temperature; (3) incubate with primary rabbit anti-AADC antibody (1:500, 10166-1-AP, Proteintech) for staining AADC-IKVAV (SEQ ID NO: 23) in blocking buffer for 2 h at room temperature; (4) after washing three times in PBS (15 min each, the same as below), incubate with secondary goat anti-rabbit antibody conjugated to Alexa Fluor 647 (1:750, A-21245, ThermoFisher) in blocking buffer for 2 h at room temperature; (5) after washing three times, mount sections onto glass slides using the mounting media (Vector Laboratories) with DAPI and air-dry overnight in dark before imaging.
To analyze AADC-IKVAV (SEQ ID NO: 23) retention, as depicted in FIG. 7 and FIG. 11, stained coronal sections within the striatum were captured using a ×4 objective in DAPI (nuclei, not shown) and far-red (AADC) channels. Among these sections, the one displaying the most intense AADC fluorescence was chosen as the representative for each mouse. Subsequently, the selected sections were further examined at a higher magnification (×40 objective) for quantitative comparison. […] This area was imaged using a ×40 objective. Additionally, corresponding contralateral areas in the right striatum were also imaged.
To quantify the AADC-IKVAV (SEQ ID NO: 23) retention in the FUS targeted region, as shown in FIG. 7 and FIG. 11, the histological images were analyzed using ImageJ (version 1.53t). Specifically, the average pixel intensity of the AADC-IKVAV (SEQ ID NO: 23) channel image captured on the contralateral side of each representative section was calculated to establish the background for that section.
Immediately afterwards, the mice were sacrificed for immunohistochemical analysis of AADC-IKVAV (SEQ ID NO: 23) retention as already mentioned. The section displaying the strongest AADC fluorescence was selected as the representative for each mouse, and its adjacent section was stained separately to identify c-Fos positive cells. […]

[3] = behavior study, FUS+AADC-IKVAV+L-DOPA, two FUS sites

B1: AADC-IKVAV: aromatic-L-amino-acid decarboxylase (AADC) protein fused with short peptide IKVAV (SEQ ID NO: 23); CDS SEQ ID NO: 21 (protein)
chain: MRGSHHHHHHGMASMTGGQQMGRDLYDDDDKDPMNASEFRRRGKEMVDYMANYMEGIEGRQVYPDVEPGYLRPLIPAAAPQEPDTFEDIINDVEKIIMPGVTHWHSPYFFAYFPTASSYPAMLADMLCGAIGCIGFSWAASPACTELETVMMDWLGKMLELPKAFLNEKAGEGGGVIQGSASEATLVALLAARTKVIHRLQAASPELTQAAIMEKLVAYSSDQAHSSVERAGLIGGVKLKAIPSDGNFAMRASALQEALERDKAAGLIPFFMVATLGTTTCCSFDNLLEVGPICNKEDIWLHVDAAYAGSAFICPEFRHLLNGVEFADSFNFNPHKWLLVNFDCSAMWVKKRTDLTGAFRLDPTYLKHSHQDSGLITDYRHWQIPLGRRFRSLKMWFVFRMYGVKGLQAYIRKHVQLSHEFESLVRQDPRFEICVEVILGLVCFRLKGSNKVNEALLQRINSAKKIHLVPCHLRDKFVLRFAICSRTVESAHVQRAWEHIKELAADVLRAEREGGSGSSGGSGGSGGSGIKVAV
modifications: misc_feature 1..1602 Synthetic: AADC-IKVAV
Which Weight loss ([1]; FUS-BBBO + protein i.v., RLuc8.6-IKVAV 104 mg/kg) does the source give for B1 here?
Its Weight loss is 10.3±0.5%.

And the Weight loss ([1]; protein i.v. alone without FUS)?
Its Weight loss is 13.8±0.8%.

And the “local AADC levels (AADC+ pixels) in FUS-targeted region vs FUS alone control group” value ([2]; with subsequent L-DOPA 2 mg/kg i.p.)?
Its value is 38.5 (±6.1) fold.

What about the “local AADC levels (AADC+ pixels) in FUS-targeted region vs FUS alone control group” value ([2]; without L-DOPA) of the same molecule?
The value was 41.8 (±8.9) fold.

What about the “mice with detectable retention within the CPu” value ([2]; 11 mice receiving AADC-IKVAV) of the same molecule?
The value was 73%.

And the “levels of local AADC (AADC+ pixels, left CPu) vs FUS alone group” value [2, 3]?
The value was 13.3 (±2.8) fold.

What about the “levels of local AADC (AADC+ pixels, left CPu) vs untreated group” value [2, 3] of the same molecule?
The value was 93.3(±19.5) fold.

What about the “presence of delivered enzyme in the FUS-targeted area by immunostaining” value ([2]; behavior study, two FUS sites, 2 days after delivery) of the same molecule?
The value was “present in the FUS-targeted area in all mice”.

What about the “mice with efficient retention within 100 μm of the CPu” value ([2]; remaining mice of 11) of the same molecule?
Its value is 27%.
